This is an account of results in patent US20170281764A1.

In experiment [1] the target is CD155 on K562 cells (human) (UniProt P15151). Briefly: flow cytometry of K562 cells stained with APC-labelled anti-CD155 (clone SKII.4 per paragraph 220); percent of cells in the marker gate from about 2x10^1 to 10^4.
The target in experiment [2] is human TIGIT on cells (Jurkat-TIGIT cells; human T cells, NK cells and other blood cells) (human) (UniProt Q495A1). Nature of the experiment: flow cytometry of human PBMCs, PE anti-TIGIT (clone MBSA43 per paragraph 220) against A488 anti-CD56; CD56+ TIGIT+ gate, unit not given; middle panel (second of 3 donors).
Chain of human TIGIT on cells (Jurkat-TIGIT cells; human T cells, NK cells and other blood cells) (human) (Q495A1 22-244): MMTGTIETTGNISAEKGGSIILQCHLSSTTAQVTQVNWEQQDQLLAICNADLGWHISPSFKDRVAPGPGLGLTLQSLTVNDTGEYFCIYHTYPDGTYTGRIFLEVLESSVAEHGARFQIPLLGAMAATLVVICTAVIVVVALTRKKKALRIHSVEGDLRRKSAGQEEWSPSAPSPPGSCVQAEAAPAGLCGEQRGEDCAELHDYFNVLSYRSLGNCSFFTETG
Experiment [3] shares this target. Briefly: flow cytometry of human PBMCs, PE anti-TIGIT (clone MBSA43 per paragraph 220) against A488 anti-CD56; CD56+ TIGIT+ gate, unit not given; left panel (first of 3 donors).
The target is the same in experiment [4]. Briefly: flow cytometry of human PBMCs, PE anti-TIGIT (clone MBSA43 per paragraph 220) against A488 anti-CD56; CD56+ TIGIT+ gate, unit not given; right panel (third of 3 donors). (In general: A flow cytometer gives signals particle by particle.)

Chain of CD155 on K562 cells (human) (P15151 21-417 limits assumed): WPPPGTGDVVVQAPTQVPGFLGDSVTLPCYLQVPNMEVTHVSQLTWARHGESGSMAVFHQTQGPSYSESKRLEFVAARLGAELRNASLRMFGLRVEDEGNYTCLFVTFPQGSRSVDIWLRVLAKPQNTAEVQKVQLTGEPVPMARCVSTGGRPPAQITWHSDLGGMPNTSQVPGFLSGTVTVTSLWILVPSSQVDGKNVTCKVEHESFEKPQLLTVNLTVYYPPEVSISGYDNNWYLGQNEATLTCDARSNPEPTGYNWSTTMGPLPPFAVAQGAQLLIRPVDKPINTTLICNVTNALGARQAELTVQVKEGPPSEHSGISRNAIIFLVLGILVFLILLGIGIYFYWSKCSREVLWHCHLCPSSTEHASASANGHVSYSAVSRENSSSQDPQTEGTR

The substance CD155 - APC (antibody) showed a % CD155 in experiment [1] of 98.5%.

For the substance “anti-human TIGIT antibody clone MBSA43 (commercial; eBiosciences / BioLegend)”, the TIGIT+ NK Cells in experiment [2] came to 8.03; in experiment [3], 4.84; in experiment [4] it was 5.47.
